Measurements from patent US20030207791A1, “Materials and methods relating to the treatment of leukaemias” (priority 2000, published 2003).

B1: p53-RAR: RAR fused C-terminally to the tetramerization domain present in p53 (protein)
chain: GEYFTLQIRGRERFEMFRELNEALELKDAQAGMASNSSSCPTPGGGHLNGYPVPPYAFFFPPMLGGLSPPGALTTLQHQLPVSGYSTPSPATIETQSSSSEEIVPSPPSPPPLPRIYKPCFVCQDKSSGYHYGVSACEGCKGFFRRSIQKNMVYTCHRDKNCIINKVTRNRCQYCRLQKCFEVGMSKESVRNDRNKKKKEVPKPECSESYTLTPEVGELIEKVRKAHQETFPALCQLGKYTTNNSSEQRVSLDIDLWDKFSELSTKCIIKTVEFAKQLPGFTTLTIADQITLLKAACLDILILRICTRYTPEQDTMTFSDGLTLNRTQMHNAGFGPLTDLVFAFANQLLPLEMDDAETGLLSAICLICGDRQDLEQPDRVDMLQEPLLEALKVYVRKRRPSRPHMFPKMLMKITDLRSISAKGAERVITLKMEIPGSMPPLIQEMLENSEGLDTLSGQPGGGGRDGGGLAPPPGSCSPSLSPSSNRSSPATHSP
B2: PML-RAR: leukaemia-associated chimeric transcription factor, fusion of PML and RAR (protein)
chain: MEPAPARSPRPQQDPARPQEPTMPPPETPSEGRQPSPSPSPTERAPASEEEFQFLRCQQCQAEAKCPKLLPCLHTLCSGCLEASGMQCPICQAPWPLGADTPALDNVFFESLQRRLSVYRQIVDAQAVCTRCKESADFWCFECEQLLCAKCFEAHQWFLKHEARPLAELRNQSVREFLDGTRKTNNIFCSNPNHRTPTLTSIYCRGCSKPLCCSCALLDSSHSELKCDISAEIQQRQEELDAMTQALQEQDSAFGAVHAQMHAAVGQLGRARAETEELIRERVRQVVAHVRAQERELLEAVDARYQRDYEEMASRLGRLDAVLQRIRTGSALVQRMKCYASDQEVLDMHGFLRQALCRLRQEEPQSLQAAVRTDGFDEFKVRLQDLSSCITQGKDAAVSKKASPEAASTPRDPIDVDLPEEAERVKAQVQALGLAEAQPMAVVQSVPGAHPVPVYAFSIKGPSYGEDVSNTTTAQKRKCSQTQCPRKVIKMESEEGKEARLARSSPEQPRPSTSKAVSPPHLDGPPSPRSPVIGSEVFLPNSNHVASGAGEAIETQSSSSEEIVPSPPSPPPLPRIYKPCFVCQDKSSGYHYGVSACEGCKGFFRRSIQKNMVYTCHRDKNCIINKVTRNRCQYCRLQKCFEVGMSKESVRNDRNKKKKEVPKPECSESYTLTPEVGELIEKVRKAHQETFPALCQLGKYTTNNSSEQRVSLDIDLWDKFSELSTKCIIKTVEFAKQLPGFTTLTIADQITLLKAACLDILILRICTRYTPEQDTMTFSDGLTLNRTQMHNAGFGPLTDLVFAFANQLLPLEMDDAETGLLSAICLICGDRQDLEQPDRVDMLQEPLLEALKVYVRKRRPSRPHMFPKMLMKITDLRSISAKGAERVITLKMEIPGSMPPLIQEMLENSEGLDTLSGQPGGGGRDGGGLAPPPGSCSPSLSPSSNRSSPATHSP

Assays:
[1] = system: RARE-G5-TATA reporter (GAL4-VP16 driven transcription); assay: Transcriptional repression of GAL4-VP16 activation, RARE-G5-TATA reporter, transfected HeLa cells; assay type: cell-based
Description: FIG. 2. Role of the coiled coil of PML in the altered transcriptional properties of PML-RAR (A): Transcriptional repression by RAR and fusion proteins. Hela cells were co-transfected with the RARE-G5-TATA reporter in the absence (C) or presence of increasing amounts (50, 100, 250, 1000 ng) of the indicated expression vectors and then harvested 48 hours after transfection. Levels of expression of RAR and fusion proteins after transfection are shown in (C). (B) RARE and NCoR dependent transcriptional repression by RAR and fusion proteins. Hela cells were co-transfected with the RARE-G5-TATA or the G5-TATA, reporters and 1 μg of control expression vector (C), RAR (R), PML-RAR (P/R) and their respective AHT derivatives, as indicated. (D) RA sensitivity of RAR and fusion proteins. Cells were co-transfected with 500 ng of the indicated expression vectors. 24 hours after transfection, RA was added at the following concentrations: 1, 10, 100 nM, 1, 10 μM, and cells were harvested after additional 24 hours.
To test this hypothesis, the inventors devised an artificial, reporter system to measure transcriptional repression by RAR and chimeric proteins. The RARE-G5-TATA reporter construct has five GAL4 response elements fused to a minimal promoter region: upstream of the GAL4 sites, a RA responsive element (RARE) allows binding of RAR (or fusion proteins). […] RAR over-expression led to decrease of GAL4-VP16 activation, with 30-40% repression observed with the maximal amount of co-transfected RAR expression vector (1 μg, FIG. 2A), while it exerted no effect on the GAL4-VP16-mediated activation of a cognate promoter lacking the RARE (FIG. 2B). A RAR construct carrying the AHT mutation, which abrogates NCoR binding (Horlein et al., 1995), was unable to prevent activation of the RARE-G5-TATA promoter by GAL4-VP16 (FIG. 2B).
Next, the inventors tested the transcriptional regulatory functions of PML-RAR (or derivatives). […] At the maximal concentration tested (1 μg), the inventors observed 80-90% repression with PML-RAR and 30-40% with RAR (FIG. 2A).
Transient transfection of HeLa, NIH 3T3, SAOS and C33A cells was performed by calcium phosphate as described (Lillie and Green, 1989; Minucci et al., 1994). p53-/- MEFs were transiently transfected by lipofection as described (Pearson et al., 2000). Light units were normalized to expression of a co-transfected β-galactosidase expression plasmid. Results are presented as the mean+standard deviations of at least three independent experiments.

[2] = system: U937 cells expressing PML-RAR under the control of an inducible promoter; assay: Differentiation (CD14) of U937 cells with inducible PML-RAR treated with vitamin D and TGFβ; assay type: cell-based; conditions: PML-RAR induced, control infection (GFP alone), vitamin D and TGFβ
Text: The cells were either uninduced (ctr column), or induced to express PML-RAR (PML-RAR column). Cells were transduced with retroviral vectors encoding the coiled coil of PML (RBCC) and GFP as a marker, or with retroviral vectors encoding GFP alone as a control (control). […] In cells expressing the coiled coil of PML (gated in the cytofluorimetric analysis based on the positivity for the GFP marker), PML-RAR was unable to block efficiently differentiation (from 90% to 70%). Levels of expression of PML-RAR were unchanged by expressing the coiled coil region of PML.
RAR oligomerization through the coiled coil region of PML is required for its leukemogenic activity, and deletion of the PML coiled coil is sufficient to lead to loss of oncogenic potential (Minucci et al., 2000). Small molecule compounds able to disrupt PML-RAR oligomers would therefore be able to revert the leukemic phenotype.

| Molecule | capacity to repress GAL4-VP16 driven transcription [1] | repression of GAL4-VP16 activation ([1]; maximal amount of expression vector, 1 μg) | differentiated, CD14+ cells [2] |
| --- | --- | --- | --- |
| B1 | as strongly as PML-RAR | – | – |
| B2 | – | 80-90% | about 30% |
